In patent publication US20170015742A1 (published 2017):
Residue numbers refer to the chain shown, from its start. Values belong to the binder of their own block, whether it stands above or below them.

Experiments:
[1] = biological target: recombinant human VEGF165 (human, UniProt P15692 207-395); experiment: cell-based or functional assay
[2] = biological target: recombinant human PDGF-BB (human, UniProt P01127 82-190); experiment: cell-based or functional assay
Sequence of recombinant human PDGF-BB (P01127 82-190 limits assumed): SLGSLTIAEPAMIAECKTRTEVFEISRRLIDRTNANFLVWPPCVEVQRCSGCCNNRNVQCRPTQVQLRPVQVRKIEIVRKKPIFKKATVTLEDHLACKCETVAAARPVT

Sequence of recombinant human VEGF165 (P15692 other isoform, or with tags, fused parts or gaps limits assumed): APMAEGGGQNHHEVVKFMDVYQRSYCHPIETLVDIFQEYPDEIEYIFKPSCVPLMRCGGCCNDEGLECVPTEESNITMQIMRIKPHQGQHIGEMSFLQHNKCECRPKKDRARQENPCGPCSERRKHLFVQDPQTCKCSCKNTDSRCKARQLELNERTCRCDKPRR

Potency IC50 (nM), HMVEC-d hVEGF165 (proliferation) [1]: 0.059 nM
Potency IC50 (nM), NIH-3T3 hPDGF-BB (proliferation) [2]: 0.052 nM
B3: CL-34565_GS_CL-33675 (PR-1613183) (bispecific antibody, human IgG1, kappa, L234A L235A)
heavy: EVQLVQSGSELKKPGASVKVSCKASGYTFTDYGMYWVRQAPGQGLEWMGWIDTETGDPTYADDFKGRFVFSLDTSVSTAYLQISSLKAEDTAVYYCARTNYYYRNYMFYFDYWGQGTMVTVSSGGGGSGGGGSEVTLRESGPALVKPTQTLTLTCTFSGFSLSTYGMGVGWIRQPPGKALEWLANIWWDDDKYYNPSLKNRLTISKDTSKNQVVLTMTNMDPVDTATYYCARIESSGPKYSFDYWGQGTMVTVSSASTKGPSVFPLAPSSKSTSGGTAALGCLVKDYFPEPVTVSWNSGALTSGVHTFPAVLQSSGLYSLSSVVTVPSSSLGTQTYICNVNHKPSNTKVDKKVEPKSCDKTHTCPPCPAPEAAGGPSVFLFPPKPKDTLMISRTPEVTCVVVDVSHEDPEVKFNWYVDGVEVHNAKTKPREEQYNSTYRVVSVLTVLHQDWLNGKEYKCKVSNKALPAPIEKTISKAKGQPREPQVYTLPPSREEMTKNQVSLTCLVKGFYPSDIAVEWESNGQPENNYKTTPPVLDSDGSFFLYSKLTVDKSRWQQGNVFSCSVMHEALHNAYTQKSLSLSPGK
light: EIVLTQSPATLSLSPGERATLFCRASQSVSNHMHWYQQKPGQAPRLLIYGASILESGVPARFSGSGSGTDFTLTISSLEPEDFAVYYCQQSWYDPITFGQGTKLEIKGGSGGGGSGGEIVLTQSPGTLSLSPGERATLSCRASSGSIWYSFVSWYQQKPGQAPRLLIYADDQRASGIPDRFSGSGSGTDFTLTISRLEPEDFAVYYCQSYGINIDVVFGGGTKVEIKRTVAAPSVFIFPPSDEQLKSGTASVVCLLNNFYPREAKVQWKVDNALQSGNSQESVTEQDSKDSTYSLSSTLTLSKADYEKHKVYACEVTHQGLSSPVTKSFNRGEC

Potency IC50 (nM), HMVEC-d hVEGF165 (proliferation) [1]: 0.065 nM
Potency IC50 (nM), NIH-3T3 hPDGF-BB (proliferation) [2]: 0.323 nM
B4: CL-34565_GS_9E8.4 (PR-1613184) (bispecific antibody, human IgG1, kappa, L234A L235A)
heavy: B3 heavy with S236I, P238T, K239T
light: EIVLTQSPATLSLSPGERATLFCRASQSVSNHMHWYQQKPGQAPRLLIYGASILESGVPARFSGSGSGTDFTLTISSLEPEDFAVYYCQQSWYDPITFGQGTKLEIKGGSGGGGSGGEFVLTQSPGTLSLSPGERATLSCERSSGDIGDSYVSWYQQKPGQAPRLVIYADDQRPSGIPDRFSGSGSGTDFTLTISRLEPEDFAVYYCQSYDINIDIVFGGGTKVEIKRTVAAPSVFIFPPSDEQLKSGTASVVCLLNNFYPREAKVQWKVDNALQSGNSQESVTEQDSKDSTYSLSSTLTLSKADYEKHKVYACEVTHQGLSSPVTKSFNRGEC

Further lines, the binder ahead of its results:

B1: 3E2.1_GS_9E10.6 (PR-1612501) (bispecific antibody, human IgG1, kappa, L234A L235A)
heavy: EVQLVQSGAEVKKPGSSVKVSCKASGYTFTESYMYWVKQAPGQGLELIGRIDPEDGSTDYVEKFKNKATLTADKSTSTAYMELSSLRSEDTAVYFCARFGARSYFYPMDAWGQGTTVTVSSGGGGSGGGGSEVQLVQSGAEVKKPGSSVKVSCKASGYTFTNYGMYWVRQAPGQGLEWMGWIDTETGRPTYADDFKGRFTFTADKSTSTAYMELSSLRSEDTAVYYCARWSGDTTGIRGPWFAYWGQGTLVTVSSASTKGPSVFPLAPSSKSTSGGTAALGCLVKDYFPEPVTVSWNSGALTSGVHTFPAVLQSSGLYSLSSVVTVPSSSLGTQTYICNVNHKPSNTKVDKKVEPKSCDKTHTCPPCPAPEAAGGPSVFLFPPKPKDTLMISRTPEVTCVVVDVSHEDPEVKFNWYVDGVEVHNAKTKPREEQYNSTYRVVSVLTVLHQDWLNGKEYKCKVSNKALPAPIEKTISKAKGQPREPQVYTLPPSREEMTKNQVSLTCLVKGFYPSDIAVEWESNGQPENNYKTTPPVLDSDGSFFLYSKLTVDKSRWQQGNVFSCSVMHEALHNAYTQKSLSLSPGK
light: ETVLTQSPATLSLSPGERATLSCRASESVSTLMHWYQQKPGQQPRLLIYGASNLESGVPARFSGSGSGTDFTLTISSLEPEDFAVYFCQQSWNDPWTFGGGTKVEIKGGSGGGGSGGDIRMTQSPSSLSASVGDRVTITCLASEDIYSDLAWYQQKPGKSPKLLIYNANGLQNGVPSRFSGSGSGTDYTLTISSLQPEDVATYFCQQYNYFPGTFGQGTKLEIKRTVAAPSVFIFPPSDEQLKSGTASVVCLLNNFYPREAKVQWKVDNALQSGNSQESVTEQDSKDSTYSLSSTLTLSKADYEKHKVYACEVTHQGLSSPVTKSFNRGEC
Potency IC50 (nM), HMVEC-d hVEGF165 (proliferation) [1]: 0.188 nM
Potency IC50 (nM), NIH-3T3 hPDGF-BB (proliferation) [2]: 0.377 nM

B2: CL-34565_GS_3E2.1 (PR-1613185) (bispecific antibody, human IgG1, kappa, L234A L235A)
heavy: EVQLVQSGSELKKPGASVKVSCKASGYTFTDYGMYWVRQAPGQGLEWMGWIDTETGDPTYADDFKGRFVFSLDTSVSTAYLQISSLKAEDTAVYYCARTNYYYRNYMFYFDYWGQGTMVTVSSGGGGSGGGGSEVQLVQSGAEVKKPGSSVKVSCKASGYTFTESYMYWVKQAPGQGLELIGRIDPEDGSTDYVEKFKNKATLTADKSTSTAYMELSSLRSEDTAVYFCARFGARSYFYPMDAWGQGTTVTVSSASTKGPSVFPLAPSSKSTSGGTAALGCLVKDYFPEPVTVSWNSGALTSGVHTFPAVLQSSGLYSLSSVVTVPSSSLGTQTYICNVNHKPSNTKVDKKVEPKSCDKTHTCPPCPAPEAAGGPSVFLFPPKPKDTLMISRTPEVTCVVVDVSHEDPEVKFNWYVDGVEVHNAKTKPREEQYNSTYRVVSVLTVLHQDWLNGKEYKCKVSNKALPAPIEKTISKAKGQPREPQVYTLPPSREEMTKNQVSLTCLVKGFYPSDIAVEWESNGQPENNYKTTPPVLDSDGSFFLYSKLTVDKSRWQQGNVFSCSVMHEALHNAYTQKSLSLSPGK
light: EIVLTQSPATLSLSPGERATLFCRASQSVSNHMHWYQQKPGQAPRLLIYGASILESGVPARFSGSGSGTDFTLTISSLEPEDFAVYYCQQSWYDPITFGQGTKLEIKGGSGGGGSGGETVLTQSPATLSLSPGERATLSCRASESVSTLMHWYQQKPGQQPRLLIYGASNLESGVPARFSGSGSGTDFTLTISSLEPEDFAVYFCQQSWNDPWTFGGGTKVEIKRTVAAPSVFIFPPSDEQLKSGTASVVCLLNNFYPREAKVQWKVDNALQSGNSQESVTEQDSKDSTYSLSSTLTLSKADYEKHKVYACEVTHQGLSSPVTKSFNRGEC
Potency IC50 (nM), HMVEC-d hVEGF165 (proliferation) [1]: 0.053 nM
Potency IC50 (nM), NIH-3T3 hPDGF-BB (proliferation) [2]: 6 nM
